Here are results for 7 molecules from publication PMC12284271, “Coupling chromosome organization to genome segregation in Archaea”.

The target of series [1] is SegB (Saccharolobus solfataricus) (S. solfataricus). The series is described as follows: MST; SegB labelled with NT-647 at 304 nM final; unlabelled SegA serially diluted 1:1 over fifteen tubes; 10 mM Tris-HCl pH 7.4, 100 mM NaCl, 0.05% Tween 20; 20% LED power, 40% MST power.
Series [2] deals with T1, SegB (SegBSs) (Saccharolobus (Sulfolobus) solfataricus P2), ORF:2e81311c.
T1 sequence: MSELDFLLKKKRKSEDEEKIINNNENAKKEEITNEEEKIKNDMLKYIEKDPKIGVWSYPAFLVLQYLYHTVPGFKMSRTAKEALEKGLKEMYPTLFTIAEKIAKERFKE
The experiment in a line: EMSA. As to conditions: EMSA and footprint: 10 mM Tris-HCl pH 7.5, 50 mM KCl, 1 mM DTT, 5 mM MgCl2, 2.5% glycerol, 0.05% NP-40, 1 ug poly(dI-dC), 37 C, 20 min, DNA 1-5 nM. (In general: A gel shift assay detects complexes by their altered migration in electrophoresis.)

Series [3] shares this test system. The experiment in a line: DNase I footprinting. The following applies: EMSA and footprint: 10 mM Tris-HCl pH 7.5, 50 mM KCl, 1 mM DTT, 5 mM MgCl2, 2.5% glycerol, 0.05% NP-40, 1 ug poly(dI-dC), 37 C, 20 min, DNA 1-5 nM.
For series [4] the test system is unchanged. The series is described as follows: AFM. As to conditions: EMSA and footprint: 10 mM Tris-HCl pH 7.5, 50 mM KCl, 1 mM DTT, 5 mM MgCl2, 2.5% glycerol, 0.05% NP-40, 1 ug poly(dI-dC), 37 C, 20 min, DNA 1-5 nM.
Another series has as its target T2, SegB (SegBSa) (Sulfolobus acidocaldarius, UniProt Q4JC57 1-151).
T2 sequence: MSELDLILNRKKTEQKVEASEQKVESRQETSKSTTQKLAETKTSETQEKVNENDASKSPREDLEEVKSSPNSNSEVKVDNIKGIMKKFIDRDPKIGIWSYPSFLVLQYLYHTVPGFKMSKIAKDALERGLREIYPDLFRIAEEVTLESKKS
The series is described as follows: EMSA; EMSA and footprint: 10 mM Tris-HCl pH 7.5, 50 mM KCl, 1 mM DTT, 5 mM MgCl2, 2.5% glycerol, 0.05% NP-40, 1 ug poly(dI-dC), 37 C, 20 min; DNA 1-5 nM, SegB 0-1000. As to conditions: protein: recombinant; (pET22b NdeI/XhoI); chain copies: 2; label: 5' biotin on strand 1; blunt.

The Kd is the constant that tells how readily two partners part at equilibrium. The low end stands for tighter binding, the high end for weaker binding. With “SegA (Saccharolobus solfataricus) (natural protein)”, the Kd in series [1] came to 46 nM. That is a double-digit nanomolar value.
On to “GAATGTCACAAGGTTCTTTTCCTATATACTTAAAACAAGAGAAAAGTAGAGAAATATTCTATTATACTCTCTTTTTCCTAAATTTTAATCTTAAACTTAAGGGAAGTAGAGTCTAGACTCACGTTAGGGTATGAAATTATCTCATCCTAATTTTTATTTGGCATAACGCTAATATGAAAAACATAAATAGTTAGAGTGTT (double strand) [peak D fragment]”, for which the binding entry in series [2] and in series [3] was “binds” throughout.
In the case of “GCTCGTAATTGAGGCCAAAATTCACAAAAATGATTACCTACAGACTCTAGAGTACTCTAAATATTTCAAGTACGGTATGGCAGTATTTCCATTTACTGGAGAGTGTAGAGTACCTAAAGGTTGGATTTGTATATTTAACACCACAAAGGATCAGTCTAGATTCTACTCTCTTCTTGAAGATTTATTATCTAGAGTTAAGT (double strand) [peak B-6 fragment]”, the binding result in series [2] and in series [3] was “binds” in each case.
Consider “GCATCTATGGCATCTGAATTGGGTATATAACCATATTCTACTTCTATTCCCATATCTTCATCACTAACGTAGAGATCAAGTAGTTTTCCTTTCTTCTCATACTCCACGAATACTCTATAGCCTAGACTCTTGAAGTAAGCAGATAATATTAATTGTAGACTGGAGTGGTTAATATTTGTGAATCCTAATTCATAAAAATC (double strand) [peak B-5 fragment]”, for which the binding result in series [2] and in series [3] was “binds” each time.
Consider “CTCAGCTGTCGGTAATACGATTTAGAAAGGATGAAATCGCTTATTCAATTTACTCTAATAAGCGACTAGAGTCTATAAGAAACACTCTAGAGTATTCTACCATAGAGGGAGAAGGCTTATTCAATGGATGCATTCTATGCGGTAAATGTGTTAGTGTTTGCCCTTACGGTAAACAAACTAATGACGTATTCCATACTCCT (double strand) [peak B-3 fragment]”, for which the binding result in series [2] and in series [3] was “binds” in each case.
“AGTAAGATAAATTTACTGAAGTCGTTGTTTTGCCTACTCCTCCTTTCTGATTTATTACTGTGACTATCATGTCTAGACTCTTCTATCTATAACGTTTAATAAGGAATTCTACATGATAATACTGACGAGTCCACCATATTATAATGATAATATTTATATGCTAGATTTTTAAAAAGTATAAGTATGTTTGAGAAGCTCTATAGTGCAATAATTTATTCTGATGAATTTAAAAAAATACTATTGGGAAGAGGTGTAGATGACTTAGAGATAGCTTCAGCCTACATAGCGT (double strand) [289 bp segAB upstream fragment (sites 1, 2, 3)]”: in series [4], the binding entry is “binds”.

B1: saci0204(-47) 50 bp oligonucleotide (dsDNA)
DNA 1: TTATGAGAAGAATCTGAAATAAAGGGTATAGAGTTAAGAGTCTATATATG
DNA 2: CATATATAGACTCTTAACTCTATACCCTTTATTTCAGATTCTTCTCATAA
In the case of B1, in the series with SegB (SegBSa), the binding result was “binds”.
